Literature values as cited in PMC8035261.

Key:
SV2 = SV2 (UniProt Q9Z2I6)
FGFR3 (Homo sapiens) = FGFR3 (Homo sapiens) (UniProt P22607)
Sequence of UniProt P22607 (P22607 23-806): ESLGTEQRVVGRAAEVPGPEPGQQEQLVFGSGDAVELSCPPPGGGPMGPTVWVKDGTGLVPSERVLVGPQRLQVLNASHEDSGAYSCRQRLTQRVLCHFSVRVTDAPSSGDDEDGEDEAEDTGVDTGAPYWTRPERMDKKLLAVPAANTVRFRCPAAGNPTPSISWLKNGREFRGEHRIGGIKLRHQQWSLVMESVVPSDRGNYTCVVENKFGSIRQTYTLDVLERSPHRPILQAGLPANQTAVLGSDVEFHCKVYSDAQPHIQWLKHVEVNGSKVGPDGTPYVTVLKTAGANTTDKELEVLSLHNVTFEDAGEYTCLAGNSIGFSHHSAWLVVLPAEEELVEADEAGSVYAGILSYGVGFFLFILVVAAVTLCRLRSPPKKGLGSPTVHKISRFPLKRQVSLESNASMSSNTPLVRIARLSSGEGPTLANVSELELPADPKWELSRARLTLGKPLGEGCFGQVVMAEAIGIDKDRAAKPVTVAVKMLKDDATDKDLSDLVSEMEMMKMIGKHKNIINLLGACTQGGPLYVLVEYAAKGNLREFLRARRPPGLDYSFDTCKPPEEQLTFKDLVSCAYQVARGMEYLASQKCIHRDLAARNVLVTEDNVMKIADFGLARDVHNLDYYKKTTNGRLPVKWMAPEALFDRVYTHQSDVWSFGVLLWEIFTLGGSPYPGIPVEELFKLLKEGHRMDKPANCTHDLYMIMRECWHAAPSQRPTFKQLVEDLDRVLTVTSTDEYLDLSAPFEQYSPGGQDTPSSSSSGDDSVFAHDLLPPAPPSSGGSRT

Sequence of UniProt Q9Z2I6 (Q9Z2I6 whole entry): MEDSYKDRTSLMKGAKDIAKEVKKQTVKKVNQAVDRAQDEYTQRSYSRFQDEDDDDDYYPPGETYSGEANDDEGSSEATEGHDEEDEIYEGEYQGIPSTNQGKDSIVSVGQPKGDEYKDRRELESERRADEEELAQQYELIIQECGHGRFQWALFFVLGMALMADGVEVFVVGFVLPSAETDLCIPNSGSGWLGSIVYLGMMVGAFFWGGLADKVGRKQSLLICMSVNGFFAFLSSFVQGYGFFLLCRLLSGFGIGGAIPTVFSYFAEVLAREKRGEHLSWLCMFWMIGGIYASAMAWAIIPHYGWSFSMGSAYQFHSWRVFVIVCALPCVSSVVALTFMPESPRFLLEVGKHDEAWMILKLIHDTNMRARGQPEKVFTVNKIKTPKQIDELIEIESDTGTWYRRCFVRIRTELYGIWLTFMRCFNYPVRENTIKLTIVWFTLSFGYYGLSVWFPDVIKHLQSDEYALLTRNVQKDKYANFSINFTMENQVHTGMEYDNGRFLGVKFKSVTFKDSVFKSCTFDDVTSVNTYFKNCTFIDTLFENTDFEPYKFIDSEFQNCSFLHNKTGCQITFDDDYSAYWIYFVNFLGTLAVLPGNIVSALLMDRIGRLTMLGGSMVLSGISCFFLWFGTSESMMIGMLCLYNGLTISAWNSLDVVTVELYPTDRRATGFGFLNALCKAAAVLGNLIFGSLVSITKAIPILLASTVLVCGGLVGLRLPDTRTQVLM

## BoNT/A (from UniProt P0DPI1)
SV2
  Kd: 100 nM
FGFR3 (Homo sapiens)
  Kd: 15 nM
